Results published in patent US20230364000A1, “COMPOSITIONS COMPRISING COMBINATIONS OF COLLAGEN OR ELASTIN POLYPEPTIDES WITH ACTIVE INGREDIENTS AND METHODS OF USING SAME” (Geltor, Inc., priority 2020, published 2023).

Assays:
[1] = system: facial skin; assay: Expert clinical grader evaluation of facial skin (10 cm VAS; five-point ordinal scale for erythema), clinical study of Example 3; type: in vivo, human; details: 0.1% w/w topical formulation, Week 2
Method: A clinical study using human subjects to determine the effects of a topical skincare product containing truncated human type 21 collagen (SEQ ID NO: 16) is performed. The research is performed according to U.S. and International standards of Good Clinical Practice (FDA and ICH guidelines) and applicable government regulations.
A base formulation (control formulation) made of water, olive oil glycereth-8 esters, glycerin, coconut alkanes, hydroxyethyl acrylate/sodium acryloyldimethyl taurate copolymer, pentylene glycol, disodium EDTA, caprylyl glycol, chlorphenesin, phenoxyethanol is prepared. A formulation containing the truncated human type 21 collagen is prepared by adding sufficient collagen to prepare a topical formulation containing 0.1% w/w collagen.
Visual Analog Scales (VAS) are commonly used in clinical research to measure intensity or frequency of various symptoms, subjective characteristics or attitudes that cannot be directly measured. VAS are a reliable scale and more sensitive to small changes than simple ordinal scales. (A. Paul-Dauphin, F. Guillemin, J. Virion and S. Briancon, “Bias and precision in visual analog scales: A randomized controlled trial,” American Journal of Epidemiology, vol. 150, no. 10, pp. 1117-27, 1999). When responding to a VAS item, the expert grader specifies their level of agreement to a statement by indicating a position along a line (10 cm) between two end-points or anchor responses. Simple VAS is used to evaluate efficacy parameters in which the ends of a 10 cm horizontal line is defined as extreme limits orientated from the left (best) to the right (worst). Signs of photo-aging can be classified as follows: Mild=1-3.9 cm, Moderate=4-6.9 cm, Severe=7-10 cm.
Ordinal scales allow a number to be directly and objectively attached to the quality of a given attribute. When responding to an ordinal scale item, the expert grader specifies their level of agreement to a statement by choosing a set grade, or level.
The appearance of each subject's facial skin redness (erythema) is assessed by an expert grader using the following five-point ordinal scale for qualification at Baseline (Table 6). If qualified, each subject will undergo further erythema assessments at week 2, week 4, week 6 and week 8.
Fourteen female subjects are enrolled. The inclusion criteria are Caucasian female subjects with Fitzpatrick skin type III in good general health, and between ages of 35 and 65 years old, inclusive at enrollment. Inclusion criteria also include signs of aging on face as determined by an expert grader at a baseline of: a) Score of >2 cm<6 on 10 cm scale for lines/wrinkles; and b) Score of >1<3 on 5-point ordinal scale for facial redness (erythema). Table 7 discloses the demographics of the study participants.
The results of the expert clinical grader evaluation on lines/wrinkles, firmness (visual), elasticity (tactile), brightness, texture/softness (tactile), texture/smoothness (visual) and erythema after two weeks treatment are shown in Table 8. All of the tested characteristics were improved. The scores for brightness, texture/softness (tactile), texture/smoothness (visual) and erythema improved with statistical significance.

[2] = system: facial skin; assay: Facial skin redness, clinical study of Example 5; type: in vivo, human; details: topical facial serum 0.1%, n=15, FIG. 8
Source text: In a clinical study (n=15 subjects), subjects used a topical facial serum containing 0.1% of a polypeptide of SEQ ID NO: 16 for 8 weeks, after using a protein-free base facial serum for a 1-week washout period.

[3] = system: fibroblasts; assay: RNA sequencing of extracellular matrix gene expression in fibroblasts; type: cell-based, human; details: 0.03%, 48 hours
Method: RNA sequencing was performed to analyze global gene expression. After 48 hours of exposure, fibroblasts were incubated with 0.03% of a polypeptide according to SEQ ID NO: 16. These fibroblasts expressed higher levels of several extracellular matrix genes than cells incubated in media alone. […] This response was similar to fibroblasts treated with Vitamin C (FIG. 2A; “D”).

[4] = system: Human full-thickness skin equivalents (MatTek Epiderm FT co-culture tissue models); assay: Type I collagen production in human full-thickness skin equivalents (pro-collagen type I C-peptide ELISA); type: cell-based; details: polypeptide 0.1% w/w, FIG. 18
Method: Human full-thickness skin equivalents (MatTek Epiderm FT co-culture tissue models) which contain keratinocytes and fibroblasts were treated with a 0.1% w/w truncated human type 21 collagen polypeptide (having an amino acid sequence of SEQ ID NO: 16) (“C21”; FIG. […] Culture medium was changed every 2 days. On day 4, supernatant was collected and analyzed by enzyme-linked immunosorbent assay (ELISA) for pro-collagen type I C-peptide, which is a readout for total secreted collagen type I protein.

[5] = system: facial skin; assay: SIAscope facial skin collagen content, clinical study of Example 5; type: in vivo, human; details: topical facial serum 0.1%, n=15, FIG. 7
Source text: In a clinical study (n=15 subjects), subjects used a topical facial serum containing 0.1% of a polypeptide of SEQ ID NO: 16 for 8 weeks, after using a protein-free base facial serum for a 1-week washout period. Topical application of a polypeptide of SEQ ID NO: 16 was associated with increased skin collagen content, as measured by a SIAscope.

[6] = system: Human full-thickness skin equivalents (MatTek Epiderm FT co-culture tissue models); assay: Type III collagen production in human full-thickness skin equivalents (pro-collagen type III N-peptide ELISA); type: cell-based; details: polypeptide 0.1% w/w, ascorbic acid 2% w/w, FIG. 21
[7] = system: Human full-thickness skin equivalents (MatTek Epiderm FT co-culture tissue models); assay: Fibronectin production in human full-thickness skin equivalents (ELISA); type: cell-based; details: polypeptide 0.1% w/w, FIG. 19
[8] = day 4 supernatant, hyaluronic acid 0.1% w/w (low molecular weight, 15-40 kDa)
[9] = each agent alone, day 4, retinol (10, unit not given), ascorbic acid 2% w/w, hyaluronic acid 0.1% w/w

B1: SEQ ID NO: 16: truncated human collagen type 21 alpha 1 without the DsbA secretion tag, recombinantly expressed in E. coli (protein)
chain: AGFPGLPGPAGEPGRHGKDGLMGSPGFKGEAGSPGAPGQDGTRGEPGIPGFPGNRGLMGQKGEIGPPGQQGKKGAPGMPGLMGSNGSPGQPGTPGSKGSKGEPGIQGMPGASGLKGEPGATGSPGEPGYMGLPGIQGKKGDKGNQGEKGIQGQKGENGRQGIPGQQGIQGHHGAKGERGEKGEPGVR
In the case of B1, the “Brightness Mean Percent Improvement From BL mean” value [1] is reported as 2.57%, the “Brightness Percent of Subjects Showing Improvement From BL” value [1] is reported as 78.6% and the “Elasticity (Tactile) Mean Percent Improvement From BL mean” value [1] is reported as 0.25%. The “Elasticity (Tactile) Percent of Subjects Showing Improvement From BL” value [1] was 35.7%, the “Erythema Mean Percent Improvement From BL mean” value [1] was 23.81% and the “Erythema Percent of Subjects Showing Improvement From BL” value [1] was 35.7%. For the same molecule, the “Firmness (Visual) Mean Percent Improvement From BL mean” value [1] was 1.08%, the “Firmness (Visual) Percent of Subjects Showing Improvement From BL” value [1] was 64.3% and the “Lines/Wrinkles (Global) Mean Percent Improvement From BL mean” value [1] was 0.92%. The “Lines/Wrinkles (Global) Percent of Subjects Showing Improvement From BL” value [1] was 57.1%, the “Texture/Smoothness (Visual) Mean Percent Improvement From BL mean” value [1] was 3.63% and the “Texture/Smoothness (Visual) Percent of Subjects Showing Improvement From BL” value [1] was 64.3%. For the same molecule, the “Texture/Softness (Tactile) Mean Percent Improvement From BL mean” value [1] was 6.43%, the “Texture/Softness (Tactile) Percent of Subjects Showing Improvement From BL” value [1] was 71.4% and the “Texture/Softness (Tactile) Mean ± SD” value ([1]; n 14, baseline 4.82 ± 0.82, P-value 0.008*) was 4.51 ± 0.89. The “Elasticity (Tactile) Mean ± SD” value ([1]; n 14, baseline 4.91 ± 0.53, P-value 0.547) was 4.90 ± 0.52, the “Firmness (Visual) Mean ± SD” value ([1]; n 14, baseline 5.07 ± 0.77, P-value 0.120) was 5.01 ± 0.75 and the “Lines/Wrinkles (Global) Mean ± SD” value ([1]; n 14, baseline 5.22 ± 0.75, P-value 0.336) was 5.17 ± 0.75. For the same molecule, the “Texture/Smoothness (Visual) Mean ± SD” value ([1]; n 14, baseline 5.46 ± 0.70, P-value 0.009*) was 5.25 ± 0.68, the “Brightness Mean ± SD” value ([1]; n 14, baseline 5.51 ± 0.54, P-value 0.010*) was 5.37 ± 0.62 and the “Erythema Mean ± SD” value ([1]; five-point ordinal scale, n 14, baseline 1.60 ± 0.73, P-value 0.021*) was 1.21 ± 0.80. The skin redness ([2]; 4 weeks vs baseline) was “decrease”, the skin redness ([2]; 8 weeks vs baseline) was “decrease” and the “elastin gene (ELN) expression” value ([3]; relative to untreated cells and various marine collagens, FIG. 2B) was “upregulated”. The “collagen type I gene (COL1A) expression” value ([3]; relative to untreated cells or retinol, similar to Vitamin C, FIG. 2A) was “upregulated”, the “fibronectin gene (FN1) expression” value ([3]; relative to untreated cells, retinol and Vitamin C, FIG. 2C) was “upregulated” and the “increase of type I collagen production relative to the untreated control” value [4, 8] was 64%. For the same molecule, the “production of type I collagen as compared to untreated cells” value [4, 9] was “increased production”, the skin collagen content ([5]; 2 weeks vs baseline) was “increased” and the skin collagen content ([5]; 8 weeks vs baseline) was “increased”. For the same molecule, the “increase of type III collagen production relative to untreated control” value ([6]; day 2 supernatant) was 82%, the “production of type III collagen as compared to untreated cells” value ([6]; each agent alone, day 2, retinol (10, unit not given), hyaluronic acid 0.1% w/w) was “increased production” and the “increase of fibronectin production relative to untreated control” value [7, 8] was 67%. The “production of fibronectin as compared to untreated cells” value [7, 9] was “increased production”.
